Target: T1, ALK2-Fc, Q04771
T1 chain: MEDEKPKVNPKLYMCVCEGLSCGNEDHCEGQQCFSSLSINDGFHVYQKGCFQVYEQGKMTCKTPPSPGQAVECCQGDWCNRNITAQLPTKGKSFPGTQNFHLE
Test: SPR
Details: ligand; chains chain; remark: other sources report otherwise

Kd: 83 nM
B1: BMP9 GF-domain (bone morphogenetic protein 9 growth factor domain), Q9UK05 320-429 (protein)
chain: SAGAGSHCQKTSLRVNFEDIGWDSWIIAPKEYEAYECKGGCFFPLADDVTPTKHAIVQTLVHLKFPTKVGKACCVPTKLSPISVLYKDDMGVPTLKYHYEGMSVAECGCR
